Reference: patent US20260108605A1

Target: antibody anti-FITC IgG1 (prepared in-house)
Assay: SPR, Biacore 8K; anti-FITC IgG1 captured on Protein A chip, CD16a protein as analyte

Row | Substance | Kd | koff | kon
1 | 1600E, recombinant fragment of the extracellular domain of CD16a protein with natural mutation F176V (from UniProt P08637 17-208) (receptor) | 484 nM | 0.119 s⁻¹ | 245000 M⁻¹ s⁻¹
2 | 1604E, recombinant fragment of the extracellular domain of CD16a protein with point mutation L194P (from UniProt P08637 17-208) (receptor) | 477 nM | 0.113 s⁻¹ | 236000 M⁻¹ s⁻¹
3 | 1627E, recombinant fragment of the extracellular domain of CD16a protein with point mutation V196H (from UniProt P08637 17-208) (receptor) | 402 nM | 0.107 s⁻¹ | 267000 M⁻¹ s⁻¹
4 | 1635E, recombinant fragment of the extracellular domain of CD16a protein with point mutation L194I (from UniProt P08637 17-208) (receptor) | 506 nM | 0.121 s⁻¹ | 240000 M⁻¹ s⁻¹
5 | 1600WE, recombinant fragment of the extracellular domain of wild-type CD16a protein (from UniProt P08637 17-208) (receptor) | 2600 nM | 0.258 s⁻¹ | 99500 M⁻¹ s⁻¹
6 | 1623E, recombinant fragment of the extracellular domain of CD16a protein with point mutation V196G (from UniProt P08637 17-208) (receptor) | 418 nM | 0.105 s⁻¹ | 251000 M⁻¹ s⁻¹
7 | 1630E, recombinant fragment of the extracellular domain of CD16a protein with point mutation S197P (from UniProt P08637 17-208) (receptor) | 448 nM | 0.117 s⁻¹ | 260000 M⁻¹ s⁻¹
8 | 1632E, recombinant fragment of the extracellular domain of CD16a protein with point mutation Q192N (from UniProt P08637 17-208) (receptor) | 479 nM | 0.117 s⁻¹ | 244000 M⁻¹ s⁻¹
9 | 1615E, recombinant fragment of the extracellular domain of CD16a protein with point mutation A195V (from UniProt P08637 17-208) (receptor) | 576 nM | 0.113 s⁻¹ | 196000 M⁻¹ s⁻¹
10 | 1626E, recombinant fragment of the extracellular domain of CD16a protein with point mutation V196M (from UniProt P08637 17-208) (receptor) | 476 nM | 0.114 s⁻¹ | 240000 M⁻¹ s⁻¹
11 | 1602E, recombinant fragment of the extracellular domain of CD16a protein with point mutation Q192P (from UniProt P08637 17-208) (receptor) | 557 nM | 0.119 s⁻¹ | 214000 M⁻¹ s⁻¹
12 | 1637E, recombinant fragment of the extracellular domain of CD16a protein with point mutation V196S (from UniProt P08637 17-208) (receptor) | 391 nM | 0.101 s⁻¹ | 257000 M⁻¹ s⁻¹
13 | 1625E, recombinant fragment of the extracellular domain of CD16a protein with point mutation V196Q (from UniProt P08637 17-208) (receptor) | 415 nM | 0.112 s⁻¹ | 270000 M⁻¹ s⁻¹
